Experiments:
Assay in all cases: co-immunoprecipitation from transfected HEK293T
Conditions in all cases: reference: wild-type parafibromin; sites Y290,Y293,Y315
[1] = molecular target: Notch intracellular domain (NICD) intracellular domain, 1744-2183 (UniProt Q01705)
β-catenin = β-catenin (UniProt P35222)
Gli1 = Gli1 (UniProt P08151)

Measured: binding against the reference

parafibromin (from UniProt Q6P1J9) PR-parafibromin Y290/293/315F
stronger: all assays above
